Results as given in US20240269285A1 (University of Texas, published 2024).

T1: human CD70 (human, UniProt P32970 1-193)
T1 construct: whole, on cells; also called CD70 antigen; CD27 ligand
T1 sequence (looked up): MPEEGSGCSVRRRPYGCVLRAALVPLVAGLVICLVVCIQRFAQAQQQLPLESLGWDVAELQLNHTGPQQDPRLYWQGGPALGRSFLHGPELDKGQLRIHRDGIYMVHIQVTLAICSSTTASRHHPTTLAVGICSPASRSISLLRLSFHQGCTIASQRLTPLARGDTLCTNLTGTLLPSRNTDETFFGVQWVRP

B1: m14 monoclonal anti-human CD70 antibody clone (antibody, V domains shown)
VH: EVQLQQSGAELVKPGASVKLSCTASGFNIKDSYMHWVKQRPEQGLEWIGRIDPANANPKYDPKFQGKATITTDTSSNTAYLQLSSLTSEDTAVYYCARDYGGYFDVWGAGTTVTVSS
VL: DIQMTQSSSYLSVSLGGRVTITCKASDHINNWLAWYQQKPGNAPRLLISGATSLETGVPSRFSGSGSGKDYTLSITSLQTEDVATYYCQQYWSTPWTFGGGTKLEIK
notes: Purified monoclonal antibody; Detected with a goat anti-mouse IgG-HRP secondary antibody; also called m14-CD70
B2: m7 monoclonal anti-human CD70 antibody clone (antibody, V domains shown)
VH: QVQLKQSGPGLVQPSQSLSITCTVSGFSLTSYGVHWVRQSPGKGLEWLGVIWSGGSTDYNAAFISRLSISKDNSKSQVFFKMNSLQANDTAIYYCATYYRYDGWFAYWGQGTLVTVSA
VL: DIVLTQSPASLAVSLGQRATISCRASKSVSTSGYSYMHWYQQKPGQPPKLLIYLASNLESGVPARFSGSGSGTDFTLNIHPVEEEDAATYSCQHSRELPWTFGGGTKLEIK
notes: Purified monoclonal antibody; Detected with a goat anti-mouse IgG-HRP secondary antibody; also called m7-CD70

Molecular target: T1, human CD70
Assay: flow cytometry on CBNK cells, Raji WT cells and Raji CD70 KO cells
Method: Flow cytometry assay was conducted to detect the binding of various ml, m5, m6, m7, m14, m15, m16, m19, and m22 clones CD70 antibody clones to CD70 antigen expressed in various cells.

Binder	binding result
B1	binds
B2	binds
